# Legend:
# [1] = in vivo; cited from earlier work
# [2] = Local insulin on ulcers and tooth extraction wounds; assay type: in vivo; settings: insulin soaked cotton swabs, 1-3 units in normal saline
# Text: (§1) The present inventors have used insulin for more than a decade to enhance the effectiveness of locally injected therapeutic agents especially cancers with chemotherapeutic agents with remarkable results. […] It stimulated the fibroblast, endothelial cell, angiogenesis and skin cell growth resulting accelerated wound healing.
# indolent ulcers = experiment: as above; assay type: in vivo; settings: insulin spray, anywhere in the body incl. oral and nasal cavity
# Text: as §1
# [3] = system: advanced and localized cancers; experiment: Insulin followed by chemotherapeutic agents injected into cancer masses; assay type: in vivo; settings: insulin followed by anticancer chemotherapeutic agents, direct injection
# Text: Our study of injecting Insulin followed by anticancer chemotherapeutic agents directly into cancer masses on hundreds of advanced and localized cancers supports these finding also. […] We treated multiple brain cancer patients by directly injecting insulin with mannitol followed by with specific anti tumor Chemo-therapeutic agents with dextrose and heparin directly infused into the internal carotid artery with positive results. Patients lived longer with good quality of life with less side effects to the chemotherapy agents.
# pain = experiment: Trigger point and joint injection of local anesthetic with insulin; assay type: in vivo; settings: local anesthetic with insulin versus injectate without insulin
# Text: Trigger points or trigger sites are described as hyperirritable spots in skeletal muscle that are associated with palpable nodules in taut bands of muscle fibers whose compression may elicit local tenderness, referred pain, or local twitch response. There are many therapies to take away the tenderness and sore spots.
# musculoskeletal pain = experiment: Prolotherapy injectate with insulin; assay type: in vivo; settings: with insulin versus prolotherapy agent alone
# Text: The inventors have used glucose along with insulin and lidocaine in our prolotherapy injectate for various musculoskeletal pain, including arthritis, back pain, neck pain, fibromyalgia, sports injuries, unresolved whiplash injuries, carpal tunnel syndrome, chronic tendonitis, partially torn tendons, ligaments and cartilage, degenerated or herniated discs, TMJ pain and sciatica. It is important to note the principle of prolotherapy is to induce fibroblasts to multiply and lay more ligaments (collagen); make the ligaments and tendons stronger inducing sterile inflammation at the site. Insulin can enhance the multiplication of fibroblasts by these prolotherapy and other sterile inflammatory therapeutic agents to make ligaments stronger. […] Insulin increased the fibroblast mitosis and thus increased production of collage to strengthen the ligaments of the painful joint giving long lasting fast pain relief with stronger functional joints. When insulin is therapeutically effective ever in taking away the pain by various prolotherapy therapeutic agents, one can see how effective it is in treating the dry eye syndrome and associated diseases of the eye.
# dry eye syndrome [4] = experiment: Therapeutic activity against dry eye syndrome; assay type: in vivo; settings: incl. KCS, Sjogren's syndrome, MGD
# Text: Also, the terminology used herein is for the purpose of description and not of limitation.
# [5] = system: MCF-7 human breast cancer cells; settings: in vitro, MCF-7 cells, methotrexate in presence of insulin; cited from earlier work
# [6] = local application incl. conjunctival sac, scalp, gums, mucosa, wounds
# Text: The present invention formulation contains only 0.05 IU per drop which can be increased in severe disease states.
# dry eye syndrome [7] = experiment: MSM mixed with insulin as eye drops; assay type: in vivo; settings: aqueous MSM mixed with insulin, chemotherapy, allergic eyes, contact lens wearers
# Text: Methylsulfonylmethane (MSM), is an organosulfur compound with the formula (CH3)2SO2, a metabolite of DMSO. It is also known by several other names: DMSO2, MSM, Methylsulfonylmethane, methyl sulfone, and dimethyl sulfone. It is marketed as dietary supplement and also used for osteoarthritis, allergic rhinitis, interstitial cystitis, and throat spray for snoring. Stanley W. Jacob, M.D., of the Oregon Health and Science University, reports using MSM to treat over 18,000 patients with a assortment of ailments (MSM the Definitive Guide: The Nutritional Breakthrough for Arthritis, Allergies and More. Freedom Press. 2003. ISBN 9781893910225. http://www.amazon.com/MSM-Definitive-Guide-Nutritional-Breakthrough/dp/1893910229). It is soluble in water, and a good solvent like DMSO. We have used aqueous solutions of MSM, filtered and sterilized and mixed with insulin and used as eye drops to treat dry eye syndrome during chemotherapy, allergic conditions of the eyes and contact lens wearers with good results.
# Wurzburg cells = settings: cited from earlier work
# [8] = system: dry mouth and dry eyes conditions; experiment: ADT (Sialor) orally and/or as eye drops in dry mouth and dry eyes; assay type: in vivo; settings: 25 mg orally and/or ophthalmic drops; chemotherapy patients, menopausal women, chronic smokers
# Procedure: Another drug available is an organo sulfur compound, anethole dithiolethione (ADT, 5-[p-methoxyphenyl]-3H-1,2-dithiol-3-thione, trade name Sialor™) with hardly any side effects. It stimulates the secretion of saliva in patients with autoimmune exocrinopathy (e.g. Sjogren's syndrome). Sialor alleviates the symptoms of xerostomia and xeroophthalmia. We have used Sialor, 25 mg orally and/or ophthalmic drops with successes in these conditions especially those on chemotherapy, menopausal women, and chronic smokers with dry mouth and dry eyes conditions. ADT increases the glutathione synthesis by activating gamma-glutamyl-cysteine synthetase. ADT reduced both polymorphonuclear neutrophils adhesion to ROS (reactive oxygen species—can be effective in post perfusion adhesion of white blood cells to ROS with resultant damage) and stimulated tyrosine phosphorylation.
# Another drug available to treat KCS is a organo sulfur compound, anethole dithiolethione (ADT—trade name Sialor) with hardly any side effects. It stimulates the secretion of saliva, in patients with autoimmune exocrinopathy (Sjogren's syndrome). Sialor alleviates the symptoms of xerostomia and xeroophthalmia. […]
# dry eye [9] = settings: 2% suspension, versus baseline; cited from earlier work
# dry eye [10] = settings: ophthalmic drops, compared to artificial tears or testosterone; cited from earlier work
# [11] = relative to testosterone; cited from earlier work
# [12] = system: scleroderma and systemic lupus erythematosus; settings: with insulin
compound,measurement,setting,value
Insulin aspart,Onset of Action in hours,[1],¼-½
Insulin detemir,Effective duration of action,[1],14 h
same,Maximum duration,[1],~20 h
same,Onset of Action,[1],3 to 4 h
same,Peak action in hours,[1],6 to 8 h
insulin,healing after teeth extraction,[2],rapid healing with reduced pain
same,healing of indolent ulcers,indolent ulcers,augmented the healing
same,palpable tumors including enlarged lymph nodes,[3],literally melted away
same,relief of pain,pain,rapid and effective relief of pain
same,effectiveness of prolotherapy,musculoskeletal pain,more effective
same,therapeutic activity against dry eye syndrome,dry eye syndrome [4],high therapeutic activity
same,increase of the cytotoxic effect of methotrexate,[5],"up to 10,000 fold"
same,blood sugar levels (hypoglycemic effects),[6],did not change the blood sugar levels
"CS(C)(=O)=O [MSM, Methylsulfonylmethane]",treatment outcome in dry eye syndrome,dry eye syndrome [7],good results
NPH (isophane): intermediate-acting insulin,Effective duration of action,[1],10 to 16 h
same,Maximum duration,[1],14 to 18 h
same,Onset of Action,[1],2 to 4 h
same,Peak action in hours,[1],6 to 10 h
Insulin glargine,Effective duration of action,[1],18 to 20 h
same,Maximum duration,[1],20 to 24 h
same,Onset of Action,[1],3 to 4 h
same,Peak action in hours,[1],8 to 16 h
Regular (soluble): short-acting insulin,Effective duration of action,[1],3 to 6 h
same,Maximum duration,[1],6 to 8 h
same,Peak action in hours,[1],2 to 3 h
"COc1ccc(-c2cc(=S)ss2)cc1 [ADT, 5-[p-methoxyphenyl]-3H-1,2-dithiol-3-thione]",H2O2 induced lipid peroxidation,Wurzburg cells; ADT pretreatment of Wurzburg cells,remarkably inhibited
same,glutathione levels,Wurzburg cells; compared with untreated Wurzburg cells,rises glutathione levels significantly
same,treatment outcome in dry mouth and dry eyes conditions,[8],successes
Insulin glulisine,Onset of Action in hours,[1],¼-½
O=C(NC(Cc1cc(=O)[nH]c2ccccc12)C(=O)O)c1ccc(Cl)cc1 (stereo not drawn) [Rebamipide],fluorescein corneal staining,dry eye [9],decreased from baseline
same,subjective parameters such as gritty/sandy sensation and burning/pain,dry eye [9],decreased from baseline
"IGF-1: Insulin-like Growth factor (IGF-1), which has insulin like effects",therapeutic activity against dry eye syndrome,dry eye syndrome [4],high therapeutic activity
Insulin lispro,Onset of Action in hours,[1],¼-½
"C[C@]12CC[C@H](O)CC1=CC[C@@H]1[C@@H]2CC[C@]2(C)C(=O)CC[C@@H]12 [DHEA, dehydroepiandrosterone]",subjective patient response,dry eye [10],felt better
same,androgenic activity of testosterone,[11],5%
"O=P1(N(CCCl)CCCl)NCCCO1 (stereo not drawn) [cyclophosphamide, Cyclophosphamide]",treatment outcome in scleroderma and systemic lupus erythematosus,[12],very successfully

# From patent US20120003296A1, “NEW METHODS OF TREATING DRY EYE SYNDROME” (priority 2010, published 2012)
